Among the data in US20220265821A1 (PASCAL BIOSCIENCES, published 2022) are EC50 values, retold here.

Positions count from the first letter of the chain named.

To fix the notation:
B1: VpreB antibody 5-11D1 (recombinant mouse-human chimeric IgG1/kappa) (antibody, V domains shown)
VH: EVQLEESGPSLVKPSQTLSLTCSVTGDSITSDYWTWIRKFPGNKLEYMGYISYSGRTYYNPSLKSRISITRDTSRNQYYLQLSSVTTEDTATYYCARERYYYGSLDYWGQGTTLTVSS
VL: DVLMTQTPLSLPVSLGDQASISCRSSQSLVHSNGNTYLHWYLQKPGQSPKLLIYKVSNRFSGVPDRFSGSGSGTDFTLKISRVEAEDLGVYFCSQTTHVPPTFGGGTKLEIKR
notes: also called mAb 5-11D1
B2: VpreB antibody 5-4A9 (recombinant mouse-human chimeric IgG1/kappa) (antibody, V domains shown)
VH: EVQLQQSGAELVKPGASVQLSCKASGYTFTSYWMQWVKQRPGQGLEWIGEINPSNGRNNYNEKFKRKATLTVDTSSSTAYMQLSSLTSEDSAVYYCARSGLLDYWGQGTTLTVSS
VL: B1 VL with K79T, T96S, H98Y, P101L, G105A, I111L
notes: also called mAb 5-4A9
B3: VpreB antibody 5-14H5 (recombinant mouse-human chimeric IgG1/kappa) (antibody, V domains shown)
VH: B2 VH with E1Q, S7P, Q19K, Y32N, Q35N, N58I, R66S, T74K
VL: B1 VL with T96S, H98Y, V99L, P101L, G105A, K108R, I111L
notes: also called mAb 5-14H5
B4: VpreB antibody 5-14A8 (recombinant mouse-human chimeric IgG1/kappa) (antibody, V domains shown)
VH: B1 VH with K44I, Y53S, T57I, R75K
VL: B1 VL with S28G
notes: also called mAb 5-14A8
B5: lambda-5 antibody 4-15E6 (recombinant mouse-human chimeric IgG1/kappa) (antibody, V domains shown)
VH: EVQLEESGAELVRSGASVKLSCTASGFNIKDYYLHWVKQRPEQGLEWIGWIDPENGNTDYAPKFQGKATMTADTSSNTAYLQLSSLTSEDTAVYYCNEGYYDYDTDSAMDYWGQGTSVTVSS
VL: B1 VL with N33D, N35I, T96S, H98R, P101W
notes: also called mAb 4-15E6
B6: lambda-5 antibody 4-12G1 (recombinant mouse-human chimeric IgG1/kappa) (antibody, V domains shown)
VH: B5 VH with N57A, T69S, S88F, T105A
VL: B1 VL with N33D, N35I, T96S, T97A, H98R, P101W
notes: also called mAb 4-12G1
B7: lambda-5 antibody 4-5G11 (recombinant mouse-human chimeric IgG1/kappa) (antibody)
heavy: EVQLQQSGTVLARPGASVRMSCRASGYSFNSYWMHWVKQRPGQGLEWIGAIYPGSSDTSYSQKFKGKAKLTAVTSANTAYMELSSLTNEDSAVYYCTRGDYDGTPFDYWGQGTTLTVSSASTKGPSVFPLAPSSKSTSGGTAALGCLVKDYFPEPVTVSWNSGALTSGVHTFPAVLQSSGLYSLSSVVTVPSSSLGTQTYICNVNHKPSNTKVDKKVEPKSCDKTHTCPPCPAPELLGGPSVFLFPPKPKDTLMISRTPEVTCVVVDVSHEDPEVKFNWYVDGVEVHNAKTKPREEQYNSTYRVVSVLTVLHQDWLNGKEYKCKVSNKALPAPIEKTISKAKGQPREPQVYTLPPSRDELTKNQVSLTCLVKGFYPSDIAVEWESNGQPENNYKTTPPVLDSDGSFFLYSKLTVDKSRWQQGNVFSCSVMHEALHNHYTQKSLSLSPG
light: DILMTQSPLTLSVTIGQPASISCKSGQSLLDSDGKTYLNWLLQRPGQSPKRLIYLVSKLHSGVPDRFTGSGSGTDFTLKISRVEAEDLGVYYCWQGTHFPLTFGAGTKLELKRTVAAPSVFIFPPSDEQLKSGTASVVCLLNNFYPREAKVQWKVDNALQSGNSQESVTEQDSKDSTYSLSSTLTLSKADYEKHKVYACEVTHQGLSSPVTKSFNRGEC
notes: also called mAb 4-5G11
B8: lambda-5 antibody 4-9H8 (recombinant mouse-human chimeric IgG1/kappa) (antibody)
heavy: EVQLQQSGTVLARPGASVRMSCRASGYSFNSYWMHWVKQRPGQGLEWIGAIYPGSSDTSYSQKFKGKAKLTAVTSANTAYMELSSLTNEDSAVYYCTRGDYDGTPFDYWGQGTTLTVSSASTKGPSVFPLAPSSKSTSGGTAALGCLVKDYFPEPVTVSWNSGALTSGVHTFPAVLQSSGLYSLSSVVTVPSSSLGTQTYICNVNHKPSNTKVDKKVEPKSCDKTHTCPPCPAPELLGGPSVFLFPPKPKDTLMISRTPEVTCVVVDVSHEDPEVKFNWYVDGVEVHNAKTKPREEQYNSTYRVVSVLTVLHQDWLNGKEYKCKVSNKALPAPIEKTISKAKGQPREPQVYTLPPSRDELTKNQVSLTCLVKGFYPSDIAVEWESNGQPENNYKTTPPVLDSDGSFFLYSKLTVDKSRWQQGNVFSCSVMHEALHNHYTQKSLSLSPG
light: B7 light with L3V
notes: also called mAb 4-9H8
B9: lambda-5 antibody 4-19A9 (recombinant mouse-human chimeric IgG1/kappa) (antibody, V domains shown)
VH: EVQLQQSGTVLARPGASVKMSCKASGYTFTSYWMHWVKQRPGQGLEWIGAIYPGNSDTSYNQKFKGKARLTAVTSASTAYMELSSLTNEDSAVYYCTRADYDGTPFDYWGQGTTLTVSS
VL: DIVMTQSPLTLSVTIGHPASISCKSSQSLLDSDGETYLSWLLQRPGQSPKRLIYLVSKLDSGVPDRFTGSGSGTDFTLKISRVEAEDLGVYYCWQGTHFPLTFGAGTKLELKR
notes: also called mAb 4-19A9
B10: lambda-5 antibody 4-17G9 (recombinant mouse-human chimeric IgG1/kappa) (antibody, V domains shown)
VH: B9 VH with K23Q, S31N, K63N, R69E, S77T, N88D
VL: DIVMTQSPLTLSVTIGHPASISCKSSQSLLDSDGETYLSWLLQRPGQSPKRLIYLVSKLDSGVPDRFTGSGSGTDFTLKISRVEAEDLGVYYCWQGTHFPLTFGAGTKVELKR
notes: also called mAb 4-17G9
B11: lambda-5 antibody 4-7C1 (recombinant mouse-human chimeric IgG1/kappa) (antibody, V domains shown)
VH: B9 VH with K23R, A24P, G44D, R69K
VL: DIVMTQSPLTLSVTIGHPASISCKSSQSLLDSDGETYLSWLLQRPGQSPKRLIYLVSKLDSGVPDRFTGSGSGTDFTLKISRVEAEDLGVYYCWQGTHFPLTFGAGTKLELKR
notes: also called mAb 4-7C1
B12: lambda-5 antibody 4-18G6 (recombinant mouse-human chimeric IgG1/kappa) (antibody, V domains shown)
VH: B9 VH with S31N, I51V, N61S, K65T, R69K, E82D
VL: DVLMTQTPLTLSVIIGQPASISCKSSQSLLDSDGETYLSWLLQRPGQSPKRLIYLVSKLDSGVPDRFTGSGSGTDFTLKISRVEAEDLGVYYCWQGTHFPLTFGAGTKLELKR
notes: also called mAb 4-18G6
B13: lambda-5 antibody 4-6D12 (recombinant mouse-human chimeric IgG1/kappa) (antibody, V domains shown)
VH: B9 VH with S31N, R69K, Y95F
VL: B10 VL with V3L, K50E, V109L
notes: also called mAb 4-6D12
B14: lambda-5 antibody 4-20D2 (recombinant mouse-human chimeric IgG1/kappa) (antibody, V domains shown)
VH: B9 VH with T28S, R69K, A99G
VL: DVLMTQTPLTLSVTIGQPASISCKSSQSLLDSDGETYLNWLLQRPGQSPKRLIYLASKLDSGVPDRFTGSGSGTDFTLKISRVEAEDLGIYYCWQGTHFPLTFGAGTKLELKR
notes: also called mAb 4-20D2
B15: lambda-5 antibody 4-7A6 (recombinant mouse-human chimeric IgG1/kappa) (antibody, V domains shown)
VH: B9 VH with A16T, P53L, S56T, R69K, T78S
VL: B10 VL with I2V, S7N, P8A, K24R, V109L
notes: also called mAb 4-7A6
B16: VpreB antibody 5-2D7 (recombinant mouse-human chimeric IgG1/kappa) (antibody, V domains shown)
VH: B2 VH with E1Q, S7P, Q19K, N58I, R66S, T74I, V113D
VL: B1 VL with V30I, Y41S, R82S, T96S, H98Y, P101L, G105A, I111L
notes: also called mAb 5-2D7
B17: VpreB antibody 5-9B12 (recombinant mouse-human chimeric IgG1/kappa) (antibody, V domains shown)
VH: B1 VH with R75K, N76K, S83N
VL: B1 VL with L3V
notes: also called mAb 5-9B12

The first assay concerns the target T1, human VpreB (on the pre-BCR-expressing human pre-B cell line NALM-6) (human, UniProt P12018 20-145).
T1 construct: On NALM-6 cells VpreB stands in the pre-BCR together with lambda-5 and the mu heavy chain; also called VPREB1; VpreB subunit of the SLC of human pre-BCR
T1 sequence: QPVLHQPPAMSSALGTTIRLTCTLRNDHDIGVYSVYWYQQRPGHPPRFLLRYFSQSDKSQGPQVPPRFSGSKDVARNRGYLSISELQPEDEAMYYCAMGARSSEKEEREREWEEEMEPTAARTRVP
Briefly: flow cytometry, saturation binding of recombinant chimeric mAb to NALM-6 cells. As to the method: (§1) Avidity of each VpreB antibody was determined by measuring saturation binding kinetics of antibody to NALM-6 cells using flow cytometry as follows. The cells were stained with a 3-fold descending titration of recombinant, chimeric VpreB antibody ranging from 133 nM to 0.002 nM. A PE/Cy5-labeled mouse anti-human IgG1 secondary antibody (Southern Biotech #9042-13) was used to detect cell-bound anti-VpreB or an IgG1 isotype control antibody (PAS-ISO6H4). The 50% effective concentration (EC₅₀) was calculated using GraphPad Prism software. Antibodies 5-4A9, 5-11D1, 5-14A8, and 5-14H5 all bound to VpreB-expressing NALM-6 cells with unusually strong binding avidity (<400 pM; FIG. 13, Table 16).
Background: A flow cytometer gives signals particle by particle.
As usually defined, the EC50 is the concentration that produces a half-maximal response. Regarding B1, the EC50 was found to be 0.143 nM.

Turning to B2, the EC50 is 0.396 nM.

In the case of B3, the EC50 was 0.115 nM.

In the case of B4, the EC50 was 0.227 nM.

The target in another assay is T2, human lambda-5 (on the pre-BCR-expressing human pre-B cell line NALM-6) (human, UniProt P15814 38-213).
T2 construct: On NALM-6 cells lambda-5 stands in the pre-BCR together with VpreB and the mu heavy chain; also called IGLL1; lambda-5 subunit of the SLC of human pre-BCR
T2 sequence (P15814 38-213 limits assumed): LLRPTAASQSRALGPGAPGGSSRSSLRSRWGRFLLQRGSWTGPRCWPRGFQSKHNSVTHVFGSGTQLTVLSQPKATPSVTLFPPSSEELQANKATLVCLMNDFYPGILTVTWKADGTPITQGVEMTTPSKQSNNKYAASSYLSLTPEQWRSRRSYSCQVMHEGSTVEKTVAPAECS
The description is as above.
Consider B5, for which the EC50 is under 30 nM.

For the molecule B6, the EC50 is under 30 nM.

For B7, the EC50 was under 30 nM.

For the molecule B8, the EC50 is under 30 nM.

Take B9: the EC50 was under 30 nM.

Regarding B10, the EC50 was under 30 nM.

As to B11, the EC50 was under 30 nM.

With B12, the EC50 was under 30 nM.

Take B13: the EC50 is under 30 nM.

B14: the EC50 is under 30 nM.

Consider B15, for which the EC50 is under 30 nM.

For the next assay, the target named is T1, human VpreB (on the pre-BCR-expressing …). Described as above. This is another data set of the same source.
With B16, the EC50 was under 0.4 nM.

For the molecule B1, the EC50 is under 0.4 nM.

Take B2: the EC50 is under 0.4 nM.

As for B3, the EC50 was under 0.4 nM.

With B17, the EC50 is under 0.4 nM.

Consider B4, for which the EC50 is under 0.4 nM.

The target of another assay is T2, human lambda-5 (on the …). The description is as above. This is another data set of the same source. As to the method: as §1
The avidity of each lambda-5 antibody was determined by measuring saturation binding kinetics of recombinant, chimeric mAb to NALM-6 cells using flow cytometry as described for the VpreB antibody saturation binding kinetics experiment. Antibodies 4-6D12, 4-5G11, 4-7A6, 4-7C1, 4-9H8, 4-12G1, 4-15E6, 4-17G9, 4-18G6, 4-19A9, and 4-20D2 all bound to VpreB- expressing NALM-6 cells with strong avidity (<30 nM; FIG. 16, Table 18).
For B5, the EC50 worked out at 3.7 nM.

In the case of B6, the EC50 turned out to be 4.5 nM.

Turning to B7, the EC50 was 6.2 nM.

B8: the EC50 was 7.4 nM.

Consider B9, for which the 50% effective concentration (EC50) was 8.1 nM.

Take B10: the EC50 is 9 nM.

As to B11, the EC50 worked out at 8.4 nM.

Consider B12, for which the EC50 came out at 10.2 nM.

With B13, the EC50 was found to be 1.9 nM.

For B14, the EC50 was 26.3 nM.

For B15, the EC50 came to 2.3 nM.

In another assay the target is T1, human VpreB (on the pre-BCR-expressing …). The assay is described as above. The source holds these as a separate data set. As to the method:
as §1
The binding avidity of the VpreB mAbs 5-2D7 and 5-9B12 was also determined by measuring saturation binding kinetics of recombinant, chimeric mAb to NALM-6 cells using flow cytometry as described above. Both mAbs bound to VpreB-expressing NALM-6 cells with unusually strong avidity (<400 pM; FIG. 15, Table 17).
For the molecule B16, the EC50 was found to be 0.34 nM.

As for B17, the EC50 was found to be 0.12 nM.
